Results on three molecules are retold here after PMC4519987.

Data set [1] deals with T1, SOX17-Flag (rSOX17-Flag) (UniProt Q9H6I2 1-414). Put plainly: EMSA; EMSA: 100 mM HEPES pH 8.0, 50 mM KCl, 500 uM DTT, 50 uM EDTA, 1 mM MgCl2, 5% glycerol, 0.02 U poly(dG-dC), 0.3 pmol biotin probe, 300-fold excess competitor; 7%. On the technique in general: In EMSA bound probe runs differently from free probe, usually more slowly.
For data set [2], the target named is T1, SOX17-Flag (rSOX17-Flag). Briefly: competition; 300-fold excess vs Lef1_Biot; EMSA: 100 mM HEPES pH 8.0, 50 mM KCl, 500 uM DTT, 50 uM EDTA, 1 mM MgCl2, 5% glycerol, 0.02 U poly(dG-dC), 0.3 pmol biotin probe, 300-fold excess competitor; 7%.

T1 sequence (Q9H6I2 whole entry): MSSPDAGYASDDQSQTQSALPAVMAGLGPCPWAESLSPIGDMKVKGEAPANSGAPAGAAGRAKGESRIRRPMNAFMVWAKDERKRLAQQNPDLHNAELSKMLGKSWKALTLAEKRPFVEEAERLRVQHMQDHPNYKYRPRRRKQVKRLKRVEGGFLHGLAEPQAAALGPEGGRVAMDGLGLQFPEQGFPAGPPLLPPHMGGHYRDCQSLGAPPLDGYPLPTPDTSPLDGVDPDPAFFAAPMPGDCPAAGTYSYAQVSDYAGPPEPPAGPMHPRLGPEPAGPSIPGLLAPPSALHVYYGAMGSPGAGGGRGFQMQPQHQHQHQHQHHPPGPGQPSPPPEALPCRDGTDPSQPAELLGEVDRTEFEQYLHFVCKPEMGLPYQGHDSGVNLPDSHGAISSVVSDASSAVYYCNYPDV

B1: Lef1_Biot (dsDNA)
DNA 1: CATTTCTTTATGTCCTTTGTTTACTGTTCTG
DNA 2: CAGAACAGTAAACAAAGGACATAAAGAAATG
As to B1, the binding result in the data set with SOX17-Flag (rSOX17-Flag) [1] is “binds”.

B2: Lef1_s1 (dsDNA)
DNA 1: CATTTCTTTATGTCCTTTGTTTACTGTTCTG
DNA 2: CAGAACAGTAAACAAAGGACATAAAGAAATG
In the case of B2, the binding result with SOX17-Flag (rSOX17-Flag) [2] is listed as “binds”.

B3: Lef1_Δ_s1 (dsDNA)
DNA 1: CATTTCTTTATGTCAGGGTGGTACTGTTCTG
DNA 2: CAGAACAGTACCACCCTGACATAAAGAAATG
Take B3: in the data set with SOX17-Flag (rSOX17-Flag) [2], the binding result is “no binding”.
